Measurements as given in PMC12525626, “Phosphorylation as a candidate regulatory mechanism for effector recruitment to tankyrase” (Royal Society Open Science, 2025).
Square brackets hold non-standard residues; d marks the D form. 5(6)‑carboxyfluorescein = 5(6)-carboxyfluorescein; pS = N[C@@H](COP(=O)(O)O)C(=O)O; βAla = NCCC(=O)O

T1: Human TNKS2 ARC4 (residues 488-649), wild type (human, UniProt Q9H2K2 488-649)
T1 construct: Tankyrase-2 (TNKS2), human, ankyrin repeat cluster 4, residues 488-649 of NM_025235.2, from the construct pETM30-2-TNKS2 ARC4; Monomeric by SEC-MALS; also called WT ARC4; tankyrase ankyrin repeat cluster 4; source: E. coli BL21-CodonPlus(DE3)-RIL, purified (HisTrap, TEV cleavage, second HisTrap, Superdex 75)
T1 sequence (looked up): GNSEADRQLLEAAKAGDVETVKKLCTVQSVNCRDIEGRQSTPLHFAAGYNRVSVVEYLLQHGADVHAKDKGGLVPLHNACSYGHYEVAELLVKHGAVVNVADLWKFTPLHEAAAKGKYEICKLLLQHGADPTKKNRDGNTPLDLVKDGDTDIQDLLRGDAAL


Key:
[1] = target: T1, Human TNKS2 ARC4 (residues 488-649), …; assay: fluorescence polarisation; carboxyfluorescein-labelled MDC1 TBM1 peptides with TNKS2 ARC4 protein (no-protein wells as baseline); POLARstar Omega plate reader; n = 3 separate experiments in technical duplicate; one-site total binding model, standard errors of the fit; settings: both partners purified
[2] = target: T1, Human TNKS2 ARC4 (residues 488-649), …; assay: crystal structure; TNKS2 ARC4 at 20 mg/ml with 1.5-fold molar excess of phospho-MDC1 peptide in 25 mM HEPES-NaOH pH 7.5, 100 mM NaCl, 2 mM TCEP; sitting drop, 4°C, 0.1 M Na cacodylate pH 6.5, 0.2 M Na acetate, 30% PEG 8000; molecular replacement; settings: both partners purified

Row | Binder | Kd [1] | binding result [2]
1 | {5(6)‑carboxyfluorescein-βAla}-QRGEPEGGSQ-NH2 (also called Non-phosphorylated TBM1; source: synthetic peptide (JPT, Berlin; crude stock, greater than 70% pure by HPLC)) [MDC1 TBM1 peptide, non-phosphorylated (5(6)-carboxyfluorescein-βAla-QRGEPEGGSQ-NH2)] | 4.5 µM | –
2 | Ac-ERDTQRGEPEGG[pS]QDQ-NH2 (SMILES CC(=O)N[C@@H](CCC(=O)O)C(=O)N[C@@H](CCCNC(=N)N)C(=O)N[C@@H](CC(=O)O)C(=O)N[C@H](C(=O)N[C@@H](CCC(N)=O)C(=O)N[C@@H](CCCNC(=N)N)C(=O)NCC(=O)N[C@@H](CCC(=O)O)C(=O)N1CCC[C@H]1C(=O)N[C@@H](CCC(=O)O)C(=O)NCC(=O)NCC(=O)N[C@@H](COP(=O)(O)O)C(=O)N[C@@H](CCC(N)=O)C(=O)N[C@@H](CC(=O)O)C(=O)N[C@@H](CCC(N)=O)C(N)=O)[C@@H](C)O, Mediator of DNA damage checkpoint protein 1 (MDC1), human, residues 943-958 around TBM1; also called phospho-MDC1 peptide; source: synthetic peptide (JPT, Berlin; HPLC-purified)) [MDC1 phospho-TBM1 peptide for co-crystallization (acetyl-943ERDTQRGEPEGG-pS-QDQ958-NH2)] | – | binds
